Ends that are not written are not given here.
T1: CYLD CAP-Gly1 domain, GST-tagged, Q9NQC7
T1 chain: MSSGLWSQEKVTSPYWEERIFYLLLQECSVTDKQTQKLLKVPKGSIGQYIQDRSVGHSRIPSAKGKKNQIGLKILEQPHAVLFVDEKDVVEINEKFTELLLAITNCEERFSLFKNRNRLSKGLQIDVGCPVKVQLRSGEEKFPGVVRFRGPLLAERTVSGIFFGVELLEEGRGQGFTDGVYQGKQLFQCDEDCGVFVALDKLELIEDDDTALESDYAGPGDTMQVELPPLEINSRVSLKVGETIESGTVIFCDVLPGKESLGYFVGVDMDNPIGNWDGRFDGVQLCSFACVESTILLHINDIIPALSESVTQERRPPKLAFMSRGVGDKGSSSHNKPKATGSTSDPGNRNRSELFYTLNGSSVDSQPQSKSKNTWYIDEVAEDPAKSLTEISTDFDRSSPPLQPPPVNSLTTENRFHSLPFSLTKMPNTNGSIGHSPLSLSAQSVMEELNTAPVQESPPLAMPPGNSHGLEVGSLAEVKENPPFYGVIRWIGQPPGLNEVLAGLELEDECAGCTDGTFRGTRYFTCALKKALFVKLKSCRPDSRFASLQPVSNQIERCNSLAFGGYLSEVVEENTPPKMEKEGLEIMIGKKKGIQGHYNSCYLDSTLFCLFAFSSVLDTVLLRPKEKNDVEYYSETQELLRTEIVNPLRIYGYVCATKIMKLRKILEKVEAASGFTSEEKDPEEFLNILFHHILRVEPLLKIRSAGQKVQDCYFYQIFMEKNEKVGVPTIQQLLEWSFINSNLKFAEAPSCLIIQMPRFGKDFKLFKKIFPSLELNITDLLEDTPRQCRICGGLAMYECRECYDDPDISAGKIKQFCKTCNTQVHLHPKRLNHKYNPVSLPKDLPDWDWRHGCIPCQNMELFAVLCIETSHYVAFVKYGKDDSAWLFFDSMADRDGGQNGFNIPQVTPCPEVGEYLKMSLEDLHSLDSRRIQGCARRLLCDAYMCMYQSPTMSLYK

T2: CYLD CAP-Gly3 domain, GST-tagged, Q9NQC7
T2 chain: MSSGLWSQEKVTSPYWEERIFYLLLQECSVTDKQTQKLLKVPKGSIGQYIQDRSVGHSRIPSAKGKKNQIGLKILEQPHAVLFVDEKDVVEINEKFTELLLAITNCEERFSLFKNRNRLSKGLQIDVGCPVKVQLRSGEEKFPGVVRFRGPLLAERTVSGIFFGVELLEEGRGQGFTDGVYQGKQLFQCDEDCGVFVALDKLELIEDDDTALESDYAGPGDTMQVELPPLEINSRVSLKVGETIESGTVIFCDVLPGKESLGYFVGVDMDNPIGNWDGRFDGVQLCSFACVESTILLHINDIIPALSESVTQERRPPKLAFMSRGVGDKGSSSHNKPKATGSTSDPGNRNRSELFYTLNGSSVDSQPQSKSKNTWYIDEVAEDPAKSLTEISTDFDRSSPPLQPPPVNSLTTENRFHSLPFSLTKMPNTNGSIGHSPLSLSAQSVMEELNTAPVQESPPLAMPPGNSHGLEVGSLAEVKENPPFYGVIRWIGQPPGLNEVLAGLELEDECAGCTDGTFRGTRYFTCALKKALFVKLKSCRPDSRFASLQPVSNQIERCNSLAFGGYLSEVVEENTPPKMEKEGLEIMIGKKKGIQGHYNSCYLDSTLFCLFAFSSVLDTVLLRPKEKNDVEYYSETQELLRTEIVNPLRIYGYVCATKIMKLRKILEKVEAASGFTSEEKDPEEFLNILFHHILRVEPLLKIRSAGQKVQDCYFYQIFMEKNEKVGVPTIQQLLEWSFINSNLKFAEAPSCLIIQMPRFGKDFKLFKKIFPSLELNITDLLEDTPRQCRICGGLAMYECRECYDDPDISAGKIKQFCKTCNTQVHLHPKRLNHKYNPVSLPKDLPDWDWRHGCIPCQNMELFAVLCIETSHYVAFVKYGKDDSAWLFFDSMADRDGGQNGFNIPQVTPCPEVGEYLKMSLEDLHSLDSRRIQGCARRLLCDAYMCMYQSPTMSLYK


Columns and labels:
[1] = biological target: T1, CYLD CAP-Gly1 domain, GST-tagged, Q9NQC7; test: peptide SPOT array alanine scanning; details: chain shown with the change;; parent: est. 0; read off a plot
[2] = biological target: USP22 zf-UBP domain, tag cleaved (for FP) (human) (UniProt Q9UPT9); test: fluorescence polarisation; saturation or displacement not stated for this experiment; 50 mM phosphate buffer pH 7.4, room temperature
[3] = biological target: T2, CYLD CAP-Gly3 domain, GST-tagged, Q9NQC7; test: peptide SPOT array alanine scanning; details: chain shown with the change;; parent: est. 0; read off a plot
[4] = biological target: USP20 DUSP2 domain (human) (UniProt Q9Y2K6); test: fluorescence polarisation; displacement: serial dilution of the unlabelled peptide against the domain (at two-fold the KD of the FITC-labelled peptide) in complex with 10 nM FITC-labelled peptide; 50 mM phosphate buffer pH 7.4; room temperature; three technical replicates; sigmoidal dose-response fit
[5] = biological target: USP33 DUSP2 domain (human) (UniProt Q8TEY7); test: as above
[6] = biological target: USP33 zf-UBP domain (human) (UniProt Q8TEY7); test: as above
[7] = biological target: USP20 zf-UBP domain (human) (UniProt Q9Y2K6); test: as above
[8] = biological target: USP33 zf-UBP domain, tag cleaved (for FP) (human) (UniProt Q8TEY7); test: fluorescence polarisation; displacement: unlabeled peptide titrated into the domain (at two-fold the KD of the FITC-labeled peptide) with 10 nM FITC-labeled peptide; 50 mM phosphate buffer pH 7.4, DTT, room temperature; estimated KD
[9] = biological target: USP20 zf-UBP domain, tag cleaved (for FP) (human); test: as above
USP20 zf-UBP domain, tag cleaved (for FP) (human), sequence (Q9Y2K6 whole entry, the tested form may be a part): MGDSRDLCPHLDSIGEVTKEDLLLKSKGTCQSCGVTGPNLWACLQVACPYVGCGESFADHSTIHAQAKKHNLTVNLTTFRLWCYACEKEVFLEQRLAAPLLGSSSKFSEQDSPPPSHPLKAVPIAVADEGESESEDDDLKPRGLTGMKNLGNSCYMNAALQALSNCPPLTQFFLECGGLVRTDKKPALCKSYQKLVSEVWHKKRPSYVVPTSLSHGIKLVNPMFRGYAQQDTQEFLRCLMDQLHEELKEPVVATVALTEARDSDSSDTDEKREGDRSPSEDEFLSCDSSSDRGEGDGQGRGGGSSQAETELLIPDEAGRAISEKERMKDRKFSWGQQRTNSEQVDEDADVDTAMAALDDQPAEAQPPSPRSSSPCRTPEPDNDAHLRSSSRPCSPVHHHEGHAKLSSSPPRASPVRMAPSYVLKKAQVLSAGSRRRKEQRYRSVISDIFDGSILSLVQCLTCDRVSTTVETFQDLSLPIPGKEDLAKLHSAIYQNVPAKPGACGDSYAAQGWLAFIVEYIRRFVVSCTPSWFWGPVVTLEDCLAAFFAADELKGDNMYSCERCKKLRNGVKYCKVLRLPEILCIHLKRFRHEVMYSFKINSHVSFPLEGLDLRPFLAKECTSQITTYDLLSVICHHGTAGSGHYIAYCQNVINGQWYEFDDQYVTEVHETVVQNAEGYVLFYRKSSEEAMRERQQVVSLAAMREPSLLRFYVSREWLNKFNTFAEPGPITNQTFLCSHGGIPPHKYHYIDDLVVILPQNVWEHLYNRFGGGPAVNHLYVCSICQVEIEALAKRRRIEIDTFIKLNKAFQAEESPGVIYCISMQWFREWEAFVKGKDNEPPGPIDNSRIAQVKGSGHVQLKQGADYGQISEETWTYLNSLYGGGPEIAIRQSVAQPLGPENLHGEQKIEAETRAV

USP33 zf-UBP domain (human), sequence (Q8TEY7 whole entry, the tested form may be a part): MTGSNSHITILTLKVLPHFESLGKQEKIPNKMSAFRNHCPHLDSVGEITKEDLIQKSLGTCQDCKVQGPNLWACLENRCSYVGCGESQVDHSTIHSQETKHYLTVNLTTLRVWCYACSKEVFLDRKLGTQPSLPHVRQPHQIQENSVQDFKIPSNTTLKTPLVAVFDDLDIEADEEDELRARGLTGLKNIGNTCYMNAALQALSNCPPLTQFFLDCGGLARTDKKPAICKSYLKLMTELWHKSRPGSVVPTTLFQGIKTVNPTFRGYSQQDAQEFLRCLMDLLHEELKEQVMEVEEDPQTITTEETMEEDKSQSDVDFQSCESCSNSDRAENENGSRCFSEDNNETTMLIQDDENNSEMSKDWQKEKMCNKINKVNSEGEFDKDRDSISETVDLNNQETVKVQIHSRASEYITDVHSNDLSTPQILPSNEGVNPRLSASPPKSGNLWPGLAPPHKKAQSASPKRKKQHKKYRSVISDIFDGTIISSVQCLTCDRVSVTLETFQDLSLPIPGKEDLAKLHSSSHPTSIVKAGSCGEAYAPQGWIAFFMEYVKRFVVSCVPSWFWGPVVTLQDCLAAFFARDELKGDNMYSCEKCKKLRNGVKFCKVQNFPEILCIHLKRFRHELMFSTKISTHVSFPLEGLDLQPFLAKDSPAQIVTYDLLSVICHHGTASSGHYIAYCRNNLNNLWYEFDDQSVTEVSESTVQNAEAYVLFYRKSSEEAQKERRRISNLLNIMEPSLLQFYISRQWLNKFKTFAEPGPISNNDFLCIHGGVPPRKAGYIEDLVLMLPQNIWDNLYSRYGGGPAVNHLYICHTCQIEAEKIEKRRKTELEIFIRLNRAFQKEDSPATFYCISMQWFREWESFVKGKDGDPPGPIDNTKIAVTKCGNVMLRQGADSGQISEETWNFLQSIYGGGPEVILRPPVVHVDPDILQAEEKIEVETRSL
USP33 DUSP2 domain (human), sequence (Q8TEY7 whole entry, the tested form may be a part): as above
USP22 zf-UBP domain, tag cleaved (for FP) (human), sequence (Q9UPT9 whole entry, the tested form may be a part): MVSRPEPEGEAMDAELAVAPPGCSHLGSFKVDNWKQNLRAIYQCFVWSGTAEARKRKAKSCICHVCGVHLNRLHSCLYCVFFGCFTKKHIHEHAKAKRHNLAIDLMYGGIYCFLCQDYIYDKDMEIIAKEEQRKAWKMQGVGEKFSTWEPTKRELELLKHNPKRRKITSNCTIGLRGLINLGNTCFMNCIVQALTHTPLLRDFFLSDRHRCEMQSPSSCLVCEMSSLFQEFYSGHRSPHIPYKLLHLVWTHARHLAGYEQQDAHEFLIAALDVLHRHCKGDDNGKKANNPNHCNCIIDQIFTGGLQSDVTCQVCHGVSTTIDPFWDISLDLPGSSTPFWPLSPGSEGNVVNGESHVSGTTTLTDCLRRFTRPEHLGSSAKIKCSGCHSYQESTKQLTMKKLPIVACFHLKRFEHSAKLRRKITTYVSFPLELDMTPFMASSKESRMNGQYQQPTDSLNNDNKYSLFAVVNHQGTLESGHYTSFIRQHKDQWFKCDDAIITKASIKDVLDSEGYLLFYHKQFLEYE
USP20 zf-UBP domain (human), sequence (Q9Y2K6 whole entry, the tested form may be a part): as the sequence (Q9Y2K6 whole entry, the tested form may be a part) above
USP20 DUSP2 domain (human), sequence (Q9Y2K6 whole entry, the tested form may be a part): as above
USP33 zf-UBP domain, tag cleaved (for FP) (human), sequence (Q8TEY7 whole entry, the tested form may be a part): as the sequence (Q8TEY7 whole entry, the tested form may be a part) above

Binder | other: signal change (%) [1] [%] | other: signal change (%) [3] [%] | also measured
PDAELQRMEQEAEARR [RBM25_(558-573) peptide, P49756 R571A] | -40 |  | 
VPSPEAFLGKPWSSWIDAAKLH-NH2 (also: N-terminus FITC-labeled or acetylated) [ATXN7L1_(36-57) peptide] |  |  | Kd [2]: 0.1 µM
PDAELQAMEQEAERRR [RBM25_(558-573) peptide, P49756 R564A] | -65 |  | 
GGVFKDEAYIPLQEED [HECTD4_(3003-3018) peptide, Q9Y4D8 I3010A] |  | -95 | 
Ac-QLEEELFQLRQGPAGY-NH2 [CCDC88B 947-961 peptide] |  |  | Kd [4]: 22.4 µM; Kd [5]: 40.1 µM
Ac-PYIPMDKDFQLRSFDQLS-NH2 [HIF1A 564-581 D570K peptide] |  |  | Kd [4]: 18.8 µM; Kd [5]: 9.89 µM
VPSPEAFLGKPWSSWID-NH2 (also: N-terminus FITC-labeled or acetylated) [ATXN7L1_(36-52) peptide] |  |  | Kd [2]: 11 µM
GGVFKDEIYIPLQEAD [HECTD4_(3003-3018) peptide, Q9Y4D8 E3017A] |  | 55 | 
PDAELQRMEQEAERAR [RBM25_(558-573) peptide, P49756 R572A] | -95 |  | 
GGVFKDEIYIPLAEED [HECTD4_(3003-3018) peptide, Q9Y4D8 Q3015A] |  | -15 | 
PDAEAQRMEQEAERRR [RBM25_(558-573) peptide, P49756 L562A] | -95 |  | 
GGVAKDEIYIPLQEED [HECTD4_(3003-3018) peptide, Q9Y4D8 F3006A] |  | -95 | 
PDAELQRMEAEAERRR [RBM25_(558-573) peptide, P49756 Q567A] | -25 |  | 
VPSLDDFAGQSWSSWVE-NH2 (also: N-terminus FITC-labeled or acetylated) [ATXN7L2_(18-34) peptide] |  |  | Kd [2]: 19 µM
GAVFKDEIYIPLQEED [HECTD4_(3003-3018) peptide, Q9Y4D8 G3004A] |  | -95 | 
Ac-SDDDLAWNIAPQGLQ-NH2 [GPR137B 348-362 peptide, unlabelled] |  |  | Kd [4]: 10.2 µM; Kd [5]: 228 µM

Binder | other: signal change (%) [1] [%] | other: signal change (%) [3] [%] | also measured
Ac-YTNSSGKMALNSPQPG-NH2 [IRAG1 302-316 peptide] |  |  | Kd [6]: 7.86 µM; Kd [7]: 9.02 µM
Ac-YPFQPGRMALESQSPG-NH2 [USP19 874-888 peptide] |  |  | Kd [6]: 40.6 µM; Kd [7]: 162 µM
PDAELQRMAQEAERRR [RBM25_(558-573) peptide, P49756 E566A] | -15 |  | 
GGVFKDEIYIPLQEEA [HECTD4_(3003-3018) peptide, Q9Y4D8 D3018A] |  | 35 | 
GGVFKDEIYIALQEED [HECTD4_(3003-3018) peptide, Q9Y4D8 P3013A] |  | -85 | 
PDAELQRMEQEAARRR [RBM25_(558-573) peptide, P49756 E570A] | -10 |  | 
Ac-YLQPSSKASLESTSDL-NH2 [CEP192 2073-2087 peptide] |  |  | Kd [6]: 14.1 µM; Kd [7]: 37.1 µM
Ac-YEKVKRRLDLDID-NH2 [CCP110 582-593 peptide] |  |  | Kd [6]: 260 µM; Kd [7]: 505 µM
PAAELQRMEQEAERRR [RBM25_(558-573) peptide, P49756 D559A] | -10 |  | 
Ac-DVVDDFQLQHRHGPGY-NH2 [MFSD2B 395-409 peptide] |  |  | Kd [4]: 44.7 µM; Kd [5]: 0.75 µM
GGVFKDAIYIPLQEED [HECTD4_(3003-3018) peptide, Q9Y4D8 E3009A] |  | -95 | 
Ac-PYIPMDGEDFQLSPICPE-NH2 [HIF2A 531-548 peptide] |  |  | Kd [4]: 235 µM; Kd [5]: 1180 µM
Ac-AQSKTQLEVRPV-NH2 [ROBO1_(1495-1506) peptide] |  |  | Kd [8]: 14 µM; Kd [9]: 82 µM
Ac-PYIPMDDDFQARSFDQLS-NH2 [HIF1A 564-581 L574A peptide] |  |  | Kd [5]: 227 µM
VPSLDDFAGQSWSSWVERADLP-NH2 (also: N-terminus FITC-labeled or acetylated) [ATXN7L2_(18-39) peptide] |  |  | Kd [2]: 3 µM
GGVFKAEIYIPLQEED [HECTD4_(3003-3018) peptide, Q9Y4D8 D3008A] |  | -95 | 

Now from value to binder, other results behind:

other: signal change (%) [1] [%] | other: signal change (%) [3] [%] | Binder | also measured
-35 |  | PDAELARMEQEAERRR [RBM25_(558-573) peptide, P49756 Q563A] | 
-5 |  | ADAELQRMEQEAERRR [RBM25_(558-573) peptide, P49756 P558A] | 
-95 |  | PDAELQRMEQEAERRA [RBM25_(558-573) peptide, P49756 R573A] | 
 | -95 | GGVFADEIYIPLQEED [HECTD4_(3003-3018) peptide, Q9Y4D8 K3007A] | 
 | -70 | GGAFKDEIYIPLQEED [HECTD4_(3003-3018) peptide, Q9Y4D8 V3005A] | 
 | -95 | GGVFKDEIAIPLQEED [HECTD4_(3003-3018) peptide, Q9Y4D8 Y3011A] | 
-30 |  | PDAALQRMEQEAERRR [RBM25_(558-573) peptide, P49756 E561A] | 
 | -90 | GGVFKDEIYAPLQEED [HECTD4_(3003-3018) peptide, Q9Y4D8 I3012A] | 
-90 |  | PDAELQRAEQEAERRR [RBM25_(558-573) peptide, P49756 M565A] | 
 | -5 | AGVFKDEIYIPLQEED [HECTD4_(3003-3018) peptide, Q9Y4D8 G3003A] | 
-15 |  | PDAELQRMEQAAERRR [RBM25_(558-573) peptide, P49756 E568A] | 
 | -25 | GGVFKDEIYIPLQAED [HECTD4_(3003-3018) peptide, Q9Y4D8 E3016A] | 
 | 50 | GGVFKDEIYIPAQEED [HECTD4_(3003-3018) peptide, Q9Y4D8 L3014A] | 

Reference: paper PMC13376213, “Systematic discovery of motif-based interactions of the auxiliary domains of USP family deubiquitinases” (Nature Communications, 2026)
